The values below come from CN117603358A (INST MICROBIOLOGY CAS; 3SBIO GROUP; SHANXI ADVANCED …, dated 2024).

The target in this assay is S蛋白, SARS-CoV-2原型毒株 (SARS-CoV-2 (prototype), UniProt P0DTC2 14-1273). In words: cell-based or functional assay.

B1: L4.65单抗 (antibody, V domains shown)
VH: QITLKESGPTLVKPTQTLTLTCTFSGFSLSTSGVGVAWIRQPPGKALEWLALIYWDNDKRSSPSLNNRLTITKDTSKNQVVLTMTNMDPEDTATYYCAHFFSHYDSSNYYYGSWFDPWGQGTLVTVSS
VL: EIVLTQSPGTLSLSPGERATLSCRASQSFDSRYLGWYQQKSGQAPRLLIYGASSRATGIPDRFSGSGSGTDFTLTISRLEPEDFAVYYCQQFGDSPFTFGQGTKLEIKR
Regarding B1, the “假病毒中和效果 IC50” value is 0.000709 µg/mL.

B2: CoV56单抗 (antibody, V domains shown)
VH: EVQLVESGGGVVQPGGSLRLSCAVSGFTFDDYAMHWVRQAPGKGLDWVSLISGDGSYTYYADSVKGRFTISRDSSKNSLYLQMNSLRTEDTALYYCAKAQTPTLWWLQDAFDIWGQGTMVTVSS
VL: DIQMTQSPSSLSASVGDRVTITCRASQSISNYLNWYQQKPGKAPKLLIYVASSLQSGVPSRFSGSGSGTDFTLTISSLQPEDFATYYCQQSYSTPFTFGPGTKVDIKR
In the case of B2, the “假病毒中和效果 IC50” value is 8.38 µg/mL.
